# Biological target: the molecule itself
# Test: cryo-EM structure; cryoET and subtomogram averaging of spikes in situ on vitrified, chemically unfixed, purified HCoV-NL63 virions; C3 symmetry imposed; crown 6.9 Å, stalk with membrane 11.5 Å; focused classification of RBD and domain 0
protein,measurement,value
"human coronavirus NL63 (HCoV-NL63) spike glycoprotein (S) (natural protein, N-linked glycans at 39 canonical N-glycosylation sites (36 on the crown; N1242, N1247 and N1277 on the stalk), mostly high-mannose, Spike glycoprotein S of human coronavirus NL63, full-length S in the viral envelope; ectodomain residues 1 to 1297 (crown model 1-1224, stalk 1216-1297); Trimeric spike imaged in situ on intact virions; The atomic model covers only the crown (to residue 1224); The stalk model is predicted (I-TASSER, AlphaFold, CCBuilder) and fitted by MDFF; also called S trimer) CNSNANLSMLQLGVPDNSSTIVTGLLPTHWFCANQSTSVYSANGFFYIDVGNHRSAFALHTGYYDANQYYIYVTNEIGLNASVTLKICKFSRNTTFDFLSNASSSFDCIVNLLFTEQLGAPLGITISGETVRLHLYNVTRTFYVPAAYKLTKLSVKCYFNYSCVFSVVNATVTVNVTTHNGRVVNYTVCDDCNGYTDNIFSVQQDGRIPNGFPFNNWFLLTNGSTLVDGVSRLYQPLRLTCLWPVPGLKSSTGFVYFNATGSDVNCNGYQHNSVVDVMRYNLNFSANSLDNLKSGVIVFKTLQYDVLFYCSNSSSGVLDTTIPFGPSSQPYYCFINSTINTTHVSTFVGILPPTVREIVVARTGQFYINGFKYFDLGFIEAVNFNVTTASATDFWTVAFATFVDVLVNVSATNIQNLLYCDSPFEKLQCEHLQFGLQDGFYSANFLDDNVLPETYVALPIYYQHTDINFTATASFGGSCYVCKPHQVNISLNGNTSVCVRTSHFSIRYIYNRVKSGSPGDSSWHIYLKSGTCPFSFSKLNNFQKFKTICFSTVEVPGSCNFPLEATWHYTSYTIVGALYVTWSEGNSITGVPYPVSGIREFSNLVLNNCTKYNIYDYVGTGIIRSSNQSLAGGITYVSNSGNLLGFKNVSTGNIFIVTPCNQPDQVAVYQQSIIGAMTAVNESRYGLQNLLQLPNFYYVSNGGNNCTTAVMTYSNFGICADGSLIPVRPRNSSDNGISAIITANLSIPSNWTTSVQVEYLQITSTPIVVDCATYVCNGNPRCKNLLKQYTSACKTIEDALRLSAHLETNDVSSMLTFDSNAFSLANVTSFGDYNLSSVLPQRNIRSSRIAGRSALEDLLFSKVVTSGLGTVDVDYKSCTKGLSIADLACAQYYNGIMVLPGVADAERMAMYTGSLIGGMVLGGLTSAAAIPFSLALQARLNYVALQTDVLQENQKILAASFNKAINNIVASFSSVNDAITQTAEAIHTVTIALNKIQDVVNQQGSALNHLTSQLRHNFQAISNSIQAIYDRLDSIQADQQVDRLITGRLAALNAFVSQVLNKYTEVRGSRRLAQQKINECVKSQSNRYGFCGNGTHIFSIVNSAPDGLLFLHTVLLPTDYKNVKAWSGICVDGIYGYVLRQPNLVLYSDNGVFRVTSRVMFQPRLPVLSDFVQIYNCNVTFVNISRVELHTVIPDYVDVNKTLQEFAQNLPKYVKPNFDLTPFNLTYLNLSSELKQLEAKTASLFQTTVELQGLIDQINSTYVDLKLLNRFENYIKWPWWVWLIISVVFVVLLSLLVFCCLSTGCCGCCNCLTSSMRGCCDCGSTKLPYYEFEKVHVQ",stoichiometry N,3

# — article PMC9949256, “Integrated analyses reveal a hinge glycan regulates coronavirus spike tilting and virus infectivity” (Research Square, 2023)
